{"source": "the supplement of paper PMC6379048", "assay_in_all_cases": "EC50 of free RNA motif oligo competing protein binding to immobilised probe", "key": {"MYEF2": {"target": "T1, MYEF2 (UniProt Q9P2K5)", "T1 sequence": "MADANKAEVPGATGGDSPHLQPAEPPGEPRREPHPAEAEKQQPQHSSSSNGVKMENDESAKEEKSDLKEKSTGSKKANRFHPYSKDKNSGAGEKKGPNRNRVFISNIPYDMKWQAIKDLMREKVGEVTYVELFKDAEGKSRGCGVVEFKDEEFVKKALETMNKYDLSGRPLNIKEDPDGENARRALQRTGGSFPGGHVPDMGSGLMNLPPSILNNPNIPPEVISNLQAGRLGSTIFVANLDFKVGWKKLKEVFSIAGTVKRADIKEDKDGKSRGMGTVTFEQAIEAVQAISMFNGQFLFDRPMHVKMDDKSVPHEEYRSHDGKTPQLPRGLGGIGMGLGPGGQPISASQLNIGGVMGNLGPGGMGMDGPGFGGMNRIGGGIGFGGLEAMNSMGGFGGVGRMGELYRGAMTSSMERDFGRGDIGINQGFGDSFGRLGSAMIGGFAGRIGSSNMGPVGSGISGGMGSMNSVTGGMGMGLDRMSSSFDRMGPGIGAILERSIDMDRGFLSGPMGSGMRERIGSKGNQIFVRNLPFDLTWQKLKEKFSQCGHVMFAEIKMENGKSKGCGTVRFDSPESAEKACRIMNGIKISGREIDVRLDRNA", "how_it_was_run": "(§1)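 Free RNA oligos (0 nM to 30 μM) were pre-incubated with HEK293-FT lysate (2.5 mg protein/well) for 1 h at 4°C, followed by 30 min at 4°C with the same 5′-amino-C6 oligos coupled to NHS-Sepharose beads. Bound proteins were quantified by label-free LC-MS/MS and normalised to the control. EC50 was derived from a four-parameter log-logistic fit, and Kd was obtained by multiplying EC50 by a protein-dependent depletion factor.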"}, "MRPS28": {"target": "MRPS28 (UniProt Q9Y2Q9)", "how_it_was_run": "as §1"}, "CWF19L1": {"target": "T2, CWF19L1 (UniProt Q69YN2)", "T2 sequence": "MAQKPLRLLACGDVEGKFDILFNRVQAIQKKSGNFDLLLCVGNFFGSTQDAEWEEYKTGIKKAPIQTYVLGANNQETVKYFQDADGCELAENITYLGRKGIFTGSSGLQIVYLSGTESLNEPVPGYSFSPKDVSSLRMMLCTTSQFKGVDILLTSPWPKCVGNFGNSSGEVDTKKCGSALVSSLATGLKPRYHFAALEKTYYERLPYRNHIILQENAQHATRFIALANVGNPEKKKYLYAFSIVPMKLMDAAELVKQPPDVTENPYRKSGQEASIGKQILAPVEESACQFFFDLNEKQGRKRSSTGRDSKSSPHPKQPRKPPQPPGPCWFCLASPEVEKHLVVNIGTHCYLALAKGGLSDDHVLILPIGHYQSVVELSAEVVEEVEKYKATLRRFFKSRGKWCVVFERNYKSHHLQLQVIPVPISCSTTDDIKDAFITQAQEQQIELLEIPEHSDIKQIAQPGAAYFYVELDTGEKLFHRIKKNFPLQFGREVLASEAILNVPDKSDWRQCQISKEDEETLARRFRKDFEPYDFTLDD", "how_it_was_run": "as §1"}, "PRPF31": {"target": "T3, PRPF31 (UniProt Q8WWY3)", "T3 sequence": "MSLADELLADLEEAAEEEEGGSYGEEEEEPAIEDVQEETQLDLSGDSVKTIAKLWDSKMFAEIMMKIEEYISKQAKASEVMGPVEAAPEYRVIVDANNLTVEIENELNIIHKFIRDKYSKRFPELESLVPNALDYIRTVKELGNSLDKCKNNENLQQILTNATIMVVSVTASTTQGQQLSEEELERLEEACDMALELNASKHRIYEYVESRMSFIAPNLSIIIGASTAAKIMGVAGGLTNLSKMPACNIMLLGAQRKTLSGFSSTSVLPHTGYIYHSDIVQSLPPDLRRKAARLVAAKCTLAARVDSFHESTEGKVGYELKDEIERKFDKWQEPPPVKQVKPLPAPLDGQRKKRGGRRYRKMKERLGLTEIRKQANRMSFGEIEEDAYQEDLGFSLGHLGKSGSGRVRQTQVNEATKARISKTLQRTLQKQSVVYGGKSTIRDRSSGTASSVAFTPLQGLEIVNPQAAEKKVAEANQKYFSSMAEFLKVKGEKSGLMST", "how_it_was_run": "as §1"}, "PUF60": {"target": "T4, PUF60 (UniProt Q9UHX1)", "T4 sequence": "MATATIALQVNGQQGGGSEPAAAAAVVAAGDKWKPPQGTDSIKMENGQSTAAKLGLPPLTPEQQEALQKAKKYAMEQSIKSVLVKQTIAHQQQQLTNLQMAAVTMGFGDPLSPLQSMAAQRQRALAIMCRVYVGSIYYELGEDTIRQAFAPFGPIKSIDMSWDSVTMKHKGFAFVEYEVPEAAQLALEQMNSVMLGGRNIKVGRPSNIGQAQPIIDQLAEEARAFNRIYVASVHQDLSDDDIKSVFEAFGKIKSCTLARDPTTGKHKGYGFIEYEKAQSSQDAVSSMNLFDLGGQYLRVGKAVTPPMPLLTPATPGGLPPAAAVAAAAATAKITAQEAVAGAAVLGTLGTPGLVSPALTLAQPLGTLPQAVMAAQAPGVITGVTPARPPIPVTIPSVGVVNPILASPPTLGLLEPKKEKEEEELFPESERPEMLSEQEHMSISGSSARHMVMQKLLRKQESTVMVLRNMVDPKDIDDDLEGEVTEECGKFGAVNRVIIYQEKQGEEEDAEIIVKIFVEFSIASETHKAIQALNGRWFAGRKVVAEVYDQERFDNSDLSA", "how_it_was_run": "as §1"}, "HMGB2": {"target": "T5, HMGB2 (UniProt P26583)", "T5 sequence": "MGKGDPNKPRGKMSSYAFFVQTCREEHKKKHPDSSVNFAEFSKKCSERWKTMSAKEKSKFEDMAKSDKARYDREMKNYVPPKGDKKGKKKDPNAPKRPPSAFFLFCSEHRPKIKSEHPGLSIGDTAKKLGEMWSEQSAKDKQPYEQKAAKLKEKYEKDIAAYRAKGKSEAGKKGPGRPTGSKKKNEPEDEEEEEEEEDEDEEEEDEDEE", "how_it_was_run": "as §1"}, "MRPL22": {"target": "MRPL22 (UniProt Q9NWU5)", "how_it_was_run": "as §1"}}}
{"sequence": "UAUUUAU", "values": [{"measurement": "EC50", "setting": "MYEF2", "result": 3800, "unit": "nM"}, {"measurement": "EC50", "setting": "MRPS28", "result": 56.1, "unit": "nM"}, {"measurement": "EC50", "setting": "CWF19L1", "result": 3160, "unit": "nM"}, {"measurement": "EC50", "setting": "PRPF31", "result": 5840, "unit": "nM"}]}
{"sequence": "AAUAAA", "values": [{"measurement": "EC50", "setting": "PUF60", "result": 899, "unit": "nM"}, {"measurement": "EC50", "setting": "HMGB2", "result": 2.5, "unit": "nM"}]}
{"sequence": "CUGUCCU", "values": [{"measurement": "EC50", "setting": "MRPL22", "result": 98.4, "unit": "nM"}]}
